Test results reported in patent US20210063414A1, “METHODS FOR PREVENTING AND/OR TREATING BONE LOSS CONDITIONS BY MODULATING IRISIN” (Dana-Farber Cancer Institute, Inc., priority 2018, published 2021).

How the values were obtained:
Assay in all cases: Crosslinking/co-immunoprecipitation/mass spectrometry (TMT quantitative proteomics) to identify irisin receptors
Type in all cases: binding
[1] = target: T1, MLO-Y4 cell surface proteins (Mus musculus, UniProt P08249); details: co-precipitated protein Mdh2 (MDHM_MOUSE)
T1 construct: endogenous in cells; host or cells: MLO-Y4
T1 sequence (P08249 25-338): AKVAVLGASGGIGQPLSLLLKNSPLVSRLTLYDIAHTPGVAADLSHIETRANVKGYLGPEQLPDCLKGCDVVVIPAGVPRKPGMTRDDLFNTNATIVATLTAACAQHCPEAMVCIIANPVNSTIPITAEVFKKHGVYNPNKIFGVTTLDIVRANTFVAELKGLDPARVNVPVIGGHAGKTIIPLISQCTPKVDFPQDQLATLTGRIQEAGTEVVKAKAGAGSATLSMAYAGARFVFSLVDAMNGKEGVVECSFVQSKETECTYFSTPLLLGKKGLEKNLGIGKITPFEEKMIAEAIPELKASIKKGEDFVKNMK
Outline: (§1)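 Mouse MLO-Y4 cells were switched to serum-free FreeStyle medium for 4 h, chilled, then exposed to 10 nM His-tagged irisin (or adipsin as control) for 20 min. Cells were crosslinked with 1.5 mM DTSSP (30 min, ice), and bound proteins were pulled down on Ni-NTA and eluted with 250 mM imidazole. Eluates were separated by SDS-PAGE, trypsin-digested in gel, TMT 6-plex labelled and quantified by MS3-based LC-MS/MS on an Orbitrap Fusion Lumos.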

[2] = target: T2, MLO-Y4 cell surface proteins (Mus musculus, UniProt Q8BFT2); details: co-precipitated protein Haus4 (HAUS4_MOUSE)
T2 construct: endogenous in cells; host or cells: MLO-Y4
T2 sequence (Q8BFT2 1-363): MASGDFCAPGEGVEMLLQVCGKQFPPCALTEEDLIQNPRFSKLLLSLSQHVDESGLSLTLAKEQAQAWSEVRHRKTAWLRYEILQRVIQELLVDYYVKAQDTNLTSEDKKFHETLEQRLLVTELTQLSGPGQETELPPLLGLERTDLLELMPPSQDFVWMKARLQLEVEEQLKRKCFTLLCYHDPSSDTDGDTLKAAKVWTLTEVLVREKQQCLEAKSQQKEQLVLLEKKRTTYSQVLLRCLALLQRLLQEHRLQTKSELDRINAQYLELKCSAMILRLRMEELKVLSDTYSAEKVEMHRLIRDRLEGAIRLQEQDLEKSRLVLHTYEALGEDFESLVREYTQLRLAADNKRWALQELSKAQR
Outline: as §1

[3] = target: T3, MLO-Y4 cell surface proteins (Mus musculus, UniProt Q8K221); details: co-precipitated protein Arfip2 (ARFP2_MOUSE)
T3 construct: endogenous in cells; host or cells: MLO-Y4
T3 sequence (Q8K221 1-341): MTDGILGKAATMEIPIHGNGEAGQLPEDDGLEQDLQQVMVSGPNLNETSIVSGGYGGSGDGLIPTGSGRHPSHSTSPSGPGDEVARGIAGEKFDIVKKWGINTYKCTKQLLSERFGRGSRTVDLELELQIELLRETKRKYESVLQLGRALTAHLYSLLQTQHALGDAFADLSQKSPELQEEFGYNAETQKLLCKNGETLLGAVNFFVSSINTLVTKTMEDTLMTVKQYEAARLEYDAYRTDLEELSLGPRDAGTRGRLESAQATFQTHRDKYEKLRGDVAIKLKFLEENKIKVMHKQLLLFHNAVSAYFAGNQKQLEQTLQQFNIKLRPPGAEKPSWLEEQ
Outline: as §1

[4] = target: T4, MLO-Y4 cell surface proteins (Mus musculus, UniProt Q62028); details: co-precipitated protein Pla2r1 (PLA2R_MOUSE)
T4 construct: endogenous in cells; host or cells: MLO-Y4
T4 sequence (Q62028 27-1487): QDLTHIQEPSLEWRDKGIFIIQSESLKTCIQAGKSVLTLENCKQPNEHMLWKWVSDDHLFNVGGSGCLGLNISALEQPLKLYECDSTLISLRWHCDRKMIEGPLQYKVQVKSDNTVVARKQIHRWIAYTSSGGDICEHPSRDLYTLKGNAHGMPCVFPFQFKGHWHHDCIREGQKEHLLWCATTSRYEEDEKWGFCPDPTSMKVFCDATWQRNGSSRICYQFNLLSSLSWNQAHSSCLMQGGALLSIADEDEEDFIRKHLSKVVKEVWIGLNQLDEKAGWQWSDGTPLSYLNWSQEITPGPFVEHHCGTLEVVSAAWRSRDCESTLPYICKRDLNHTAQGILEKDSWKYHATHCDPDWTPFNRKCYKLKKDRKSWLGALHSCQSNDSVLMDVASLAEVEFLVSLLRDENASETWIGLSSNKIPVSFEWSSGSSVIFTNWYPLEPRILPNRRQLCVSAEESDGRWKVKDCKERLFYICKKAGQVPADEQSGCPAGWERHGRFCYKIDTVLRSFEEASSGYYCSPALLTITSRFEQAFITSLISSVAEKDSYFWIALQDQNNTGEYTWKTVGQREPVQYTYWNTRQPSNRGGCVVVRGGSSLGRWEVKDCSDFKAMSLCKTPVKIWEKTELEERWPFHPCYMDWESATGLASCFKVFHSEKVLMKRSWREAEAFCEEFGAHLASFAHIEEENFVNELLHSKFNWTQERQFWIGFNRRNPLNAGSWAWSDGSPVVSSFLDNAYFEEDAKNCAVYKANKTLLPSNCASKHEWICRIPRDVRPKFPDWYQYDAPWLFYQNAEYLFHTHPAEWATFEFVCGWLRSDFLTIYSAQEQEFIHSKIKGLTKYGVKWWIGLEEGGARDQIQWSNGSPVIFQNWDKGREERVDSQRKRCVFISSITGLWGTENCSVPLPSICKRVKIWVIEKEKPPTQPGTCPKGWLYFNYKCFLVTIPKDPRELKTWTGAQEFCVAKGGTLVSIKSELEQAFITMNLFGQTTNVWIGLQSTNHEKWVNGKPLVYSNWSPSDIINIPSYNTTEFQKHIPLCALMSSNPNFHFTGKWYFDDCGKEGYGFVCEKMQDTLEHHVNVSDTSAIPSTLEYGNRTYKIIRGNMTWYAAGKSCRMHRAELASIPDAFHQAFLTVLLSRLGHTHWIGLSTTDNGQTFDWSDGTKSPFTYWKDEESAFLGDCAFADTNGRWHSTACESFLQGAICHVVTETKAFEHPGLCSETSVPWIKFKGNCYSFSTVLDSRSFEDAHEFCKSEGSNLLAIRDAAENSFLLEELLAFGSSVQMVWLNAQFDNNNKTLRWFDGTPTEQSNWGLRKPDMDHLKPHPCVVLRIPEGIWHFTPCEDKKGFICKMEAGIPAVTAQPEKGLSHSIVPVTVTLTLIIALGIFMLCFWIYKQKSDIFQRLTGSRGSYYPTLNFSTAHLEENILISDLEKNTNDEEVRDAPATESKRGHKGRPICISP
Outline: as §1

In the case of adipsin, the TMT signal-to-noise ratio [1] is reported as 2557.03, the TMT signal-to-noise ratio [2] is reported as 518.102 and the TMT signal-to-noise ratio [3] is reported as 1092.57. It also gave a TMT signal-to-noise ratio [4] of 519.664.
